# Changes are numbered by the printed parent chain.
# T1: human FcγRIa (human, UniProt P12314)
# T1 chain: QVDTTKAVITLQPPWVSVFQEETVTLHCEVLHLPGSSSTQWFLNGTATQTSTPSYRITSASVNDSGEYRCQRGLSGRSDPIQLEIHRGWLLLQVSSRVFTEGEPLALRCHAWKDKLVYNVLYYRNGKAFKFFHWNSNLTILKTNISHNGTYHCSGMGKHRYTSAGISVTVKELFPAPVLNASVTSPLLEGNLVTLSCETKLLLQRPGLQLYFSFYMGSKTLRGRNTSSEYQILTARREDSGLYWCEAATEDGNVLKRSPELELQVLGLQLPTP
# T2: human FcγRIIb (human, UniProt P31994)
# T2 chain: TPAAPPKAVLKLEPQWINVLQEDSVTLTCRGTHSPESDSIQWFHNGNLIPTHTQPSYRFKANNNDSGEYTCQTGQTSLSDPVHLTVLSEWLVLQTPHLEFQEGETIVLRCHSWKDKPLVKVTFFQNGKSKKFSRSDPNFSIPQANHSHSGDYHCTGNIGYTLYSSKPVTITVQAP
# B1: Fv4-IgG1 (antibody)
# chain 1: not shown
# chain 2: DIQMTQSPSSLSASVGDSVTITCQASTDISSHLNWYQQKPGKAPELLIYYGSHLLSGVPSRFSGSGSGTDFTFTISSLEAEDAATYYCGQGNRLPYTFGQGTKVEIERTVAAPSVFIFPPSDEQLKSGTASVVCLLNNFYPREAKVQWKVDNALQSGNSQESVTEQDSKDSTYSLSSTLTLSKADYEKHKVYACEVTHQGLSSPVTKSFNRGEC
# B2: F1172 (antibody)
# chain 1: QVQLQESGPGLVKPSETLSLTCAVSGHSISHDHAWSWVRQPPGEGLEWIGFISYSGITNYNPSLQGRVTISRDNSKNTLYLQMNSLRAEDTAVYYCARSLARTTAMDYWGEGTLVTVSSASTKGPSVFPLAPSSKSTSGGTAALGCLVKDYFPEPVTVSWNSGALTSGVHTFPAVLQSSGLYSLSSVVTVPSSSLGTQTYICNVNHKPSNTKVDKKVEPKSCDKTHTCPPCPAPELLGGPSVFLFPPKPKDTLMISRTPEVTCVVVDVSHEDPEVKFNWYVDGVEVHNAKTKPREEQYNSTYRVVSVLTVLHQDWLNGKEYKCKVSNKALPAPIEKTISKAKGQPREPQVYTLPPSRDELTKNQVSLTCLVKGFYPSDIAVEWESNGQPENNYKTTPPVLDSDGSFFLYSKLTVDKSRWQQGNVFSCSVMHEALHHHYTRKELSLSP
# chain 2: B1 chain 2
# B3: F1167 (antibody)
# chain 1: B2 chain 1 with M254Y, S256T, T258E, S426N, H436N, R440Q, E442S
# chain 2: B1 chain 2
# B4: F1170 (antibody)
# chain 1: B2 chain 1 with M430L, H436S
# chain 2: B1 chain 2
# B5: Fv4-YTE (antibody)
# chain 1: B2 chain 1 with M254Y, S256T, T258E, H436N, R440Q, E442S
# chain 2: B1 chain 2
# B6: F1166 (antibody)
# chain 1: B2 chain 1 with M254Y, S256T, T258E, H436N
# chain 2: B1 chain 2
# B7: F1171 (antibody)
# chain 1: B2 chain 1 with S426N, M430L, H436S, R440Q, E442S
# chain 2: B1 chain 2
# B8: BP435 (antibody)
# chain 1: QVQLQESGPGLVKPSETLSLTCAVSGHSISHDHAWSWVRQPPGEGLEWIGFISYSGITNYNPSLQGRVTISRDNSKNTLYLQMNSLRAEDTAVYYCARSLARTTAMDYWGEGTLVTVSSASTKGPSVFPLAPSSKSTSGGTAALGCLVKDYFPEPVTVSWNSGALTSGVHTFPAVLQSSGLYSLSSVVTVPSSSLGTQTYICNVNHKPSNTKVDKKVEPKSCDKTHTCPPCPAPDLLGDDSVFLFPPKPKDTLMISRTPEVTCVVVDVSDEDGEVKFNWYVDGVEVHNAKTKPREEQDNSTYRVVSVLTVLHQDWLNGKEYKCKVSNAALPRPTEKTISKAKGQPREPQVYTLPPSRDELTKNQVSLTCLVKGFYPSDIAVEWESNGQPENNYKTTPPVLDSDGSFFLYSKLTVDKSRWQQGNVFSCSVMHEALHNHYTQESLSLSP
# chain 2: not shown
# B9: BP269 (antibody)
# chain 1: B8 chain 1 with D235E, D270E, A328K, R332A, T334I
# chain 2: not shown
# B10: BP262 (antibody)
# chain 1: B8 chain 1 with D235E, D270E, D298Y, A328K, R332A, T334I
# chain 2: not shown
# B11: BP264 (antibody)
# chain 1: B8 chain 1 with D270E, A328K, T334I
# chain 2: not shown
# B12: BP426 (antibody)
# chain 1: B8 chain 1 with S269A, D270E, E271D, D298Y, A328K, T334I
# chain 2: not shown
# B13: BP268 (antibody)
# chain 1: B8 chain 1 with D270E, A328K, R332A, T334I
# chain 2: not shown
# B14: BP249 (antibody)
# chain 1: B8 chain 1 with L236Y, A328K, T334I
# chain 2: not shown
# B15: BP233 (antibody)
# chain 1: B8 chain 1 with D235E, L236Y, D270H, D298Y, A328K, R332K, T334I
# chain 2: not shown
# B16: BP243 (antibody)
# chain 1: B8 chain 1 with L236Y, D298Y, A328K, T334I
# chain 2: not shown
# B17: BP246 (antibody)
# chain 1: B8 chain 1 with S269Q, T334I
# chain 2: not shown
# B18: BP220 (antibody)
# chain 1: B8 chain 1 with A328K, R332K, T334I
# chain 2: not shown
# B19: BP151 (antibody)
# chain 1: B8 chain 1 with L236Y, D270H, G273P, D298Y, T334I
# chain 2: not shown
# B20: BP130 (antibody)
# chain 1: B8 chain 1 with D239G, D270H, G273P, D298Y, V325M, A328K, R332K, T334I
# chain 2: not shown
# B21: BP547 (antibody)
# chain 1: B8 chain 1 with A328K, T334I, K411R
# chain 2: not shown
# B22: BP230 (antibody)
# chain 1: B8 chain 1 with A328K, T334I
# chain 2: not shown
# B23: BP543 (antibody)
# chain 1: B8 chain 1 with D270Q, A328K, T334I
# chain 2: not shown
# B24: BP548 (antibody)
# chain 1: B8 chain 1 with A328K, T334I, Q421E
# chain 2: not shown
# B25: BP544 (antibody)
# chain 1: B8 chain 1 with A328K, T334I, R357Q
# chain 2: not shown
# B26: BP546 (antibody)
# chain 1: B8 chain 1 with A328K, T334I, L360M
# chain 2: not shown
# B27: BP542 (antibody)
# chain 1: B8 chain 1 with D298F, A328K, T334I
# chain 2: not shown
# B28: BP545 (antibody)
# chain 1: B8 chain 1 with A328K, T334I, D358E
# chain 2: not shown
# B29: BP541 (antibody)
# chain 1: B8 chain 1 with K276Q, A328K, T334I
# chain 2: not shown
# B30: BP237 (antibody)
# chain 1: B8 chain 1 with L236Y, S269Q, R332K, T334I
# chain 2: not shown
# B31: BP239 (antibody)
# chain 1: B8 chain 1 with L236Y, S269Q, T334I
# chain 2: not shown
# B32: BP228 (antibody)
# chain 1: B8 chain 1 with D235E, L236Y, S269Q, D298Y, A328D, T334I
# chain 2: not shown
# Biological target: human FcRn (human)
# Sequence (chain, as listed by the source, chain 1 of 2): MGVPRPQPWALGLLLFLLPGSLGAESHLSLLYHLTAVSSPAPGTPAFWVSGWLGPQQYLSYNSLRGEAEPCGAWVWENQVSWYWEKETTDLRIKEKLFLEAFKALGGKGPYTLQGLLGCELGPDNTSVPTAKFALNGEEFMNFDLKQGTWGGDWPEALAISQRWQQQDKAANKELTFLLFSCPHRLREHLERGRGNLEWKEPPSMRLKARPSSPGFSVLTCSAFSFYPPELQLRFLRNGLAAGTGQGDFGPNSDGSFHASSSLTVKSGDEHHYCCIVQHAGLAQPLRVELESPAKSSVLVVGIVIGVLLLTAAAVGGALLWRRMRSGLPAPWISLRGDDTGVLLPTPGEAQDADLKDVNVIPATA
# Sequence (chain, as listed by the source, chain 2 of 2): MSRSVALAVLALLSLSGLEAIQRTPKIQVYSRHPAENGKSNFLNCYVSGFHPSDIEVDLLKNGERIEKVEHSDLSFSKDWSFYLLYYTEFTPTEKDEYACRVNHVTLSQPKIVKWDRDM
# Experiment: SPR, pH 6.0
row,Binder,Kd
1,B1,2400 nM
2,B2,400 nM
3,B3,250 nM
4,B4,150 nM
5,B5,210 nM
6,B6,210 nM
7,B7,240 nM

# Biological target: T1, human FcγRIa
# Experiment: SPR
row,Binder,Kd
1,B8,1 nM
2,B9,14 nM
3,B10,10 nM
4,B11,7.4 nM
5,B12,1 nM
6,B13,4.5 nM

# Biological target: T1, human FcγRIa
# Experiment: SPR
# Remark: another data set of the same source
row,Binder,Kd
1,B14,7 nM
2,B15,70 nM
3,B16,3 nM
4,B17,8 nM
5,B18,20 nM

# Biological target: T2, human FcγRIIb
# Experiment: SPR
row,Binder,Kd
1,B19,40 nM
2,B20,300 nM

# Biological target: T2, human FcγRIIb
# Experiment: SPR
# Remark: another data set of the same source
row,Binder,Kd
1,B21,19 nM
2,B22,18 nM
3,B23,20 nM
4,B24,19 nM
5,B25,17 nM
6,B26,15 nM
7,B27,20 nM
8,B28,17 nM
9,B29,16 nM

# Biological target: T2, human FcγRIIb
# Experiment: SPR
# Remark: another data set of the same source
row,Binder,Kd
1,B9,110 nM
2,B10,120 nM
3,B13,92 nM

# Biological target: T2, human FcγRIIb
# Experiment: SPR
# Remark: another data set of the same source
row,Binder,Kd
1,B30,100 nM
2,B31,60 nM
3,B32,40 nM

# Biological target: T1, human FcγRIa
# Experiment: SPR
# Remark: another data set of the same source
row,Binder,Kd
1,B21,12 nM
2,B22,10 nM
3,B23,23 nM
4,B24,12 nM
5,B25,9.8 nM
6,B26,9 nM
7,B29,11 nM
